From PMC2377097, “Unc45b Forms a Cytosolic Complex with Hsp90 and Targets the Unfolded Myosin Motor Domain” (PLoS ONE, 2008)

Molecular target: the molecule itself
Assay: SEC; Superose 6 HR 10/300, 50 mM Tris-HCl pH 7.4, 150 mM NaCl, 1 mM DTT; purified proteins run alone or as a complex formed from equimolar amounts

B1: rabbit reticulocyte lysate Hsp90 (natural protein)
chain: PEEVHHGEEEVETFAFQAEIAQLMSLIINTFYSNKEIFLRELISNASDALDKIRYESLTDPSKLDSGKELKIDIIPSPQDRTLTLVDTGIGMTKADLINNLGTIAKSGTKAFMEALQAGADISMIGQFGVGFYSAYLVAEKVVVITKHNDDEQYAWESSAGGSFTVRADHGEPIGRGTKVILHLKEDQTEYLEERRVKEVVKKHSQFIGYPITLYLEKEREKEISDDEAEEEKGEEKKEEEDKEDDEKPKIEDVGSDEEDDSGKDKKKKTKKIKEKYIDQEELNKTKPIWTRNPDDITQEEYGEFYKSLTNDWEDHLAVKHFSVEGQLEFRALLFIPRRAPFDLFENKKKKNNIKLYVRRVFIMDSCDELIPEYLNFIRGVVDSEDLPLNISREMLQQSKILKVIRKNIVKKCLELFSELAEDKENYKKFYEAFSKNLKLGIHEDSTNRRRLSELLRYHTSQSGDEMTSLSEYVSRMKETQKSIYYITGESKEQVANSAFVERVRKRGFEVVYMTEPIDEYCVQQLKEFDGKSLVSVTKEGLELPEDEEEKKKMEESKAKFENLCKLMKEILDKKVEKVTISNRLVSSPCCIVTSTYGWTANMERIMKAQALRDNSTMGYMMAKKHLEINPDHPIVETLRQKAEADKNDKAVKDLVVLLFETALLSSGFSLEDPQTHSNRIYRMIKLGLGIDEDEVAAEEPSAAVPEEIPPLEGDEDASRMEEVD
stoichiometry N: 2
